Measurements reported in patent publication US20140162285A1, “Methods of Modulating Vesicular Trafficking” (The General Hospital Corporation, priority 2009, published 2014).

Target: T1, ARNO PH-domain (Homo sapiens, UniProt Q99418)
T1 construct: iv) 253-378aa, plekstrin-homology (PH) domain; made in house; host or cells: E. coli BL21(DE3)
T1 sequence (Q99418 253-378): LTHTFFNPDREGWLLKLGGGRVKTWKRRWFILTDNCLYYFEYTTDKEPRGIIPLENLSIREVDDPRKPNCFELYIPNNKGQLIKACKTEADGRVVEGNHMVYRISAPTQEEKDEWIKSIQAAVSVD
Assay: GST pull-down of in vitro translated a2N with ARNO PH-domain
Type: binding
Settings: Western blot anti-a2N
Method: The purified recombinant GST-ARNO(wt) and GST-tagged ARNO domain constructs ([…]) were incubated with 10 μl of in vitro translated 6His-a2N recombinant protein at 4° C. for 2 hours in 500 μl of binding buffer (10 mM HEPES, 1 mM EDTA, 1 mM DTT, 100 mM NaCl, 10% glycerol, 0.1% NP-40) with gentle rotation. Then the interacting recombinant proteins were immobilized on glutathione beads by incubation with 50 μl of 50% glutathione Sepharose 4B slurry for 2 hours at 4° C. The beads were collected by centrifugation and washed 5 times with 500 μl ice-cold binding buffer. Interacting proteins were eluted by boiling in SDS-PAGE sample buffer for 10 min at 95° C., resolved by SDS-PAGE and analyzed by Western blotting using polyclonal anti-a2N antibodies. […]
To examine the ability of these well-defined and functionally distinct domains of ARNO to interact with a2N1-402, full-length ARNO(wt) and its four domains were cloned separately for bacterial expression of recombinant proteins (FIG. 3). […] Interacting proteins were detected by western blot analysis with a2-specific antibodies as described above.

B1: a2N: recombinant N-terminal cytosolic tail, amino acid residues 1-402 of mouse V-ATPase a2-subunit (protein)
chain: MGSLFRSESMCLAQLFLQSGTAYECLSALGEKGLVQFRDLNQNVSSFQRKFVGEVKRCEELERILVYLVQEITRADIPLPEGEASPPAPPLKHVLEMQEQLQKLEVELREVTKNKEKLRKNLLELVEYTHMLRVTKTFLKRNVEFEPTYEEFPALENDSLLDYSCMQRLGAKLGFVSGLIQQGRVEAFERMLWRACKGYTIVTYAELDECLEDPETGEVIKWYVFLISFWGEQIGHKVKKICDCYHCHIYPYPNTAEERREIQEGLNTRIQDLYTVLHKTEDYLRQVLCKAAESVCSRVVQVRKMKAIYHMLNMCSFDVTNKCLIAEVWCPEVDLPGLRRALEEGSRESGATIPSFMNTIPTKETPPTLIRTNKFTEGFQNIVDAYGVGSYREVNPALFTII
modifications: left off: small tags and cut ends
notes: recombinant N-terminal cytosolic tail, amino acid residues 1-402 of mouse V-ATPase a2-subunit
With B1 the “interaction of a2N with ARNO PH-domain” value was “weakly”.
